Source: PMC12733864 (International Journal of Molecular Sciences, 2025)

Target: T1, recombinant D III domain of the WNV structural E glycoprotein (West Nile virus; strain of the …, UniProt Q9Q6P4)
T1 construct: also called recombinant DIII protein; recombinant analog of D III of WNV glycoprotein E
Test: BLI; Octet K2, NTA biosensors loaded with recombinant DIII (20 ug/mL); antibodies in solution at five concentrations from 10.4 to 166.4 nM; PBS; global fit of the 1:1 model; triplicate
Settings: both partners purified

T1 sequence (Q9Q6P4 whole entry, looked up, the tested form may be a part): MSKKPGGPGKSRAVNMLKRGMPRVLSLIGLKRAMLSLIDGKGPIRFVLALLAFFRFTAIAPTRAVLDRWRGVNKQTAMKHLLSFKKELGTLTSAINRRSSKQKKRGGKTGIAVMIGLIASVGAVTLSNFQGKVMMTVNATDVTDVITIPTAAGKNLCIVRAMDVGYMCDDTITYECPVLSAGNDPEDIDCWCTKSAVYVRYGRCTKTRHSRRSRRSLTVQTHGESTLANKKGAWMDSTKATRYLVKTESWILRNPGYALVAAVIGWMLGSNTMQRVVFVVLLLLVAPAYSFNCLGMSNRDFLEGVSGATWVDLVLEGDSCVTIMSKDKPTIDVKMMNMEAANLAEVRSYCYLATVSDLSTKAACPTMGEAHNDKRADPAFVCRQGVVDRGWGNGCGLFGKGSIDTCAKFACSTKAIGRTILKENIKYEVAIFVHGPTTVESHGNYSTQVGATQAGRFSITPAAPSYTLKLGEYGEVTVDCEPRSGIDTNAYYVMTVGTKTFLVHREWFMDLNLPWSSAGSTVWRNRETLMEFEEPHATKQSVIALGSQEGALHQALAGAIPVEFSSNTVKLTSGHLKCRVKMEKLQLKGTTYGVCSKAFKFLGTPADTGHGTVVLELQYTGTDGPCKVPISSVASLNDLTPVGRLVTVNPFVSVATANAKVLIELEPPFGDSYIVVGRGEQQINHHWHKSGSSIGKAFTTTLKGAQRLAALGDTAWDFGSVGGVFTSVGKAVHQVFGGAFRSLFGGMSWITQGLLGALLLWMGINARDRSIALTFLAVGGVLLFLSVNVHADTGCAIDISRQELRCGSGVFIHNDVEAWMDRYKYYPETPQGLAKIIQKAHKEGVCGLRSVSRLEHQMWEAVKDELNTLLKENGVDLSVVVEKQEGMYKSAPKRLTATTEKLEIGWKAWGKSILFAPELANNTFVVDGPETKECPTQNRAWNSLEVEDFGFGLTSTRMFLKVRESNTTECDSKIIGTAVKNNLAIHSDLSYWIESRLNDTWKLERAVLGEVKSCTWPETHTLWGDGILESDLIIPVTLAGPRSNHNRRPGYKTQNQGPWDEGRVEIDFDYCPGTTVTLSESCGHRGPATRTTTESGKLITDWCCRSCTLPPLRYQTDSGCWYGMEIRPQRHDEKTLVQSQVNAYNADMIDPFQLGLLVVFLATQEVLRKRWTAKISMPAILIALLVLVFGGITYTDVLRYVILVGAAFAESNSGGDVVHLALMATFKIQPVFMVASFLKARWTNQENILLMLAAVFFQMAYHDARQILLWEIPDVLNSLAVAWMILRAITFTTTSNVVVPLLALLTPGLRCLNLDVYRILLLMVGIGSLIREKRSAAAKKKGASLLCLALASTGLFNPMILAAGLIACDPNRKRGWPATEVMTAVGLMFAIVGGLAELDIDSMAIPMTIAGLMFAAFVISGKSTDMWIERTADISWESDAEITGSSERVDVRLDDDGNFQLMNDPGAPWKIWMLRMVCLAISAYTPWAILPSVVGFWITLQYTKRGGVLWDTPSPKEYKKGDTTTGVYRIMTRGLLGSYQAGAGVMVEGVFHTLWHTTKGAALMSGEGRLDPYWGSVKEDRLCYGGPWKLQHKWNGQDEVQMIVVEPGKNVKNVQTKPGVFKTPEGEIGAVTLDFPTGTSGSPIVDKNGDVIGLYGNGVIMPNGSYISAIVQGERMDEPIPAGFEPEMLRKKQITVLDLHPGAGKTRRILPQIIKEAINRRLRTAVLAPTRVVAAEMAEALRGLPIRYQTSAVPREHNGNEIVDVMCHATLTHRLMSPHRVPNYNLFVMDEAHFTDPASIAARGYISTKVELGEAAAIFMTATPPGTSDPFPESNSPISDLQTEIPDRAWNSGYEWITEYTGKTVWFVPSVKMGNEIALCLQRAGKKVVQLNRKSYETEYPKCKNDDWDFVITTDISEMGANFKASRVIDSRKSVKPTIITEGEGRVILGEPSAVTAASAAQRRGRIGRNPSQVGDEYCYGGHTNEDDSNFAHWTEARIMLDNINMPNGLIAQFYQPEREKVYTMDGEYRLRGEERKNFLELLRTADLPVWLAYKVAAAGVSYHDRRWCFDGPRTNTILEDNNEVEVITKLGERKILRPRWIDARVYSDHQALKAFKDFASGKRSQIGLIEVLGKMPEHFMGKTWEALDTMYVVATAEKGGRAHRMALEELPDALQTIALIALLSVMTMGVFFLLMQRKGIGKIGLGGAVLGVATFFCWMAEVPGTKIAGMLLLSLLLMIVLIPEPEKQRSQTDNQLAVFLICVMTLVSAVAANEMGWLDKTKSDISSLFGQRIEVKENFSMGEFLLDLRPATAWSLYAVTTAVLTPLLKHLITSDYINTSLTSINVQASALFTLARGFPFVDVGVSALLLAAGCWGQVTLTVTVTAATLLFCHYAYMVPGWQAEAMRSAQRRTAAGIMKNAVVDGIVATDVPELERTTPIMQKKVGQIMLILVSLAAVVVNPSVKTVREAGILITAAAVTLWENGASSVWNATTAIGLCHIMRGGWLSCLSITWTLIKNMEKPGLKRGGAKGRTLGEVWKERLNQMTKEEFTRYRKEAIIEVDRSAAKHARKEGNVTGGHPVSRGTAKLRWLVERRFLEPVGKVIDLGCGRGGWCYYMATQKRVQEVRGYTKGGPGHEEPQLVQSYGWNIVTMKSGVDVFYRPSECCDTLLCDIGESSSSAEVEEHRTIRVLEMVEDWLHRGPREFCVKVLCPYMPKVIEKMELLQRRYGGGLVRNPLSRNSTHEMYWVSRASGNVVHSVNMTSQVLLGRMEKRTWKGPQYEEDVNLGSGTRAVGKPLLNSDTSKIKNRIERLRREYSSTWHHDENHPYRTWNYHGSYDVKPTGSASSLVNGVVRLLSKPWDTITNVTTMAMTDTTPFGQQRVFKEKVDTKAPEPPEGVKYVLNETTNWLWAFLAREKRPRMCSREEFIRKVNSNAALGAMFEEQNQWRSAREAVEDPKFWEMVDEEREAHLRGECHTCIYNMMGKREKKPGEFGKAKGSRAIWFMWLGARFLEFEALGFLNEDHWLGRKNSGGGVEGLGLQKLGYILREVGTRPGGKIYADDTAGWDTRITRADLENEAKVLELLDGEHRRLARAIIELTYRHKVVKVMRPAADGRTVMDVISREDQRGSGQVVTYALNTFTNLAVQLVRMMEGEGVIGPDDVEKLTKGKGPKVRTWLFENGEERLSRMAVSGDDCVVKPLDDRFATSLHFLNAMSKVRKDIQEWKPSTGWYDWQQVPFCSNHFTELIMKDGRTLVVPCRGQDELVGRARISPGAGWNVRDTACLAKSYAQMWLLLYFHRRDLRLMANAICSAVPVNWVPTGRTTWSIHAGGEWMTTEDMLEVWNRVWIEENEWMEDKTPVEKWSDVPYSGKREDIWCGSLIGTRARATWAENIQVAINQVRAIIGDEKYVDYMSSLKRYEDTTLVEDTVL

B1: recombinant chimeric monoclonal antibody (mAb) 900, variant V4 (scFv-Fc, M252Y/S254T/T256E and H433K/N434F in the human IgG1 Fc) (antibody, V domains shown)
VH: EVQLQQSGAELVKPGASVKLSCKASGYIFTNYDINWVRQRPEQGLEWIGWIFPEDGRTKNNEKFKGKATLTTDKSSSTAYMQLSRLTSEDSAVYFCARGGGYGNYFDYWGQGTLVTVS
VL: DIVMTQAHKFMSTSVGDRVSITCKASQDVSTAVAWYQQKPGQSPKVLIYWASTRHTGVHDRFTGSGSGTDYTLTISSVQAEDLALYYCQQHYSNPLTFGAGTKLELK
For B1, the Kd was roughly 2.3 nM.
